Results: patent US20240409637A1 (Regeneron, published 2024)

How the values were obtained:
[1] = biological target: T1, cynomolgus monkey CD8 on cynomolgus monkey T cells (cynomolgus monkey); assay: flow cytometry on cynomolgus monkey T cells
Procedure: (§1) mAb1 and isotype control antibodies were 4 fold serially diluted in stain buffer (PBS containing 2% FBS) in either an 8-point titration for human CD8 positive T cells or 11 point titration for cynomolgus monkey T cells, starting at a concentration of 200 nM. A sample without primary antibody, stain buffer only, was also included as a control. Antibody titrations were plated out, 50 ul/well, into V-bottom microplates. Primary human and cynomolgus monkey T cells were stained for 15 minutes with LIVE/DEAD™ Fixable Violet Dead Cell Stain (Invitrogen) diluted 1:1000 in PBS. Cells were washed twice, and resuspended in PBS containing 2% FBS. To gate out CD4+ monkey T cells a CD4 antibody from BD Biosciences, that reacts with cynomolgus CD4+ T cells, was incubated with monkey T cells for 30 min on ice and cells were subsequently washed once with stain buffer. Human CD8 positive and monkey T cells in stain buffer were plated such that 50 ul of cell suspension, containing approximately 150,000 T cells, were added into wells of the 96-well V-bottom microplate containing the titrated antibodies. […] Samples were analyzed with the FlowJo10 software such that only viable, CD8 positive, single cells were evaluated for antibody binding.

[2] = biological target: T2, human CD8 on cells (primary human CD8 positive T cells); T cells of mice expressing hCD8; human PBMC-derived … (human, UniProt P01732 22-235; P10966 22-210); assay: flow cytometry on primary human CD8 positive T cells, APC anti-mouse IgG secondary
T2 construct: This is native CD8 on cells
T2 sequence (P01732 22-235, chain 1 of 2): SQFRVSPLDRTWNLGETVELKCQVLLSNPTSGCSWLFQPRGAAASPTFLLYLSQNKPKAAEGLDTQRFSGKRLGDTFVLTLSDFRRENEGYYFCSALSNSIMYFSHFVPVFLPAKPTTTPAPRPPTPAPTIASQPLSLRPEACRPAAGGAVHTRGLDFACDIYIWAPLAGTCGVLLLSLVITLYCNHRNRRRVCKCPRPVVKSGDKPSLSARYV
T2 sequence (P10966 22-210, chain 2 of 2): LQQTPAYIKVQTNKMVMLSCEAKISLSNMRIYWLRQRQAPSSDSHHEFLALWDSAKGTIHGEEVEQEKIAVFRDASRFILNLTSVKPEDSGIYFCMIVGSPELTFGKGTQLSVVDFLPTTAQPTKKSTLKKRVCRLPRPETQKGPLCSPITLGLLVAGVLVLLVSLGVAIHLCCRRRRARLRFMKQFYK
Procedure: as §1

[3] = biological target: T3, hCD8α with a C-terminal myc-myc-polyhistidine tag (hCD8α.mmh, REGN3940) (human, UniProt P01732 22-182); assay: SPR (Sierra Sensors MASS-1), mAb captured by anti-mouse Fc, hCD8α.mmh as analyte, 25°C
T3 construct: not shown: C-terminal myc-myc-polyhistidine tag
T3 sequence (P01732 22-182 limits assumed): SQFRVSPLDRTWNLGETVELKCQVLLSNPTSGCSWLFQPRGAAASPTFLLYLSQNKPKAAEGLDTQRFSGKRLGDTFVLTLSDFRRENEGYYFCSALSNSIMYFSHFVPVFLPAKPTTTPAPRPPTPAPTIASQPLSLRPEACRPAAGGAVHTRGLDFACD
Procedure: Equilibrium dissociation constants (KD values) for hCD8α.mmh binding to purified anti-CD8 mAbs were determined using a real-time surface plasmon resonance biosensor using a Sierra Sensors MASS-1 high-capacity amine sensor surface was derivatized by amine coupling with a polyclonal goat anti-mouse Fc antibody (GE, #BR-1008-38) to capture purified anti-CD8 mAbs. SPR binding studies were performed in a buffer composed of 0.01M HEPES pH 7.4, 0.15M NaCl, 3 mM EDTA, 0.05% v/v Surfactant P20 (HBS-ET running buffer). Different concentrations of hCD8α with a C-terminal myc-myc-polyhistidine tag (hCD8α.mmh, REGN3940) prepared in HBS-ET running buffer (ranging from 300 nM to 3.7 nM, 3-fold dilutions) were injected over the anti-CD8 mAb captured surface at a flow rate of 50 μL/minute. Association of hCD8α.mmh to the captured monoclonal antibody was monitored for 4 minutes and the dissociation of hCD8α.mmh in HBS-ET running buffer was monitored for 10 minutes. All of the binding kinetics experiments were performed at 25° C. Kinetic association (kₐ) and dissociation (kd) rate constants were determined by fitting the real-time sensorgrams to a 1:1 binding model using Scrubber 2.0c curve fitting software. Binding dissociation equilibrium constants (KD) and dissociative half-lives (t½) were calculated from the kinetic rate constants as: […]

[4] = biological target: T1, cynomolgus monkey CD8 on cynomolgus …; assay: flow cytometry (geometric MFI of APC, secondary APC goat anti-mouse IgG) on cynomolgus monkey T cells gated on CD8 positive cells; four-parameter fit; unit taken from the axis 'Concentration of Antibody Log (M)' [panel Cynomolgus Monkey T-cells, table under the plot]
Procedure: as §1

[5] = biological target: T1, cynomolgus monkey CD8 on cynomolgus …; assay: flow cytometry on cynomolgus monkey T cells (CD4+ gated out), APC anti-mouse IgG secondary
Procedure: as §1

[6] = biological target: T2, human CD8 on cells (primary human CD8 …); assay: flow cytometry (geometric MFI of APC, secondary APC goat anti-mouse IgG) on primary human CD8 positive T cells; four-parameter fit; unit taken from the axis 'Concentration of Antibody Log (M)' [panel Human CD8+ T-cells, table under the plot]
Procedure: as §1

[7] = biological target: human CD8 alpha and beta subunit on JRT3.T3/AP1-Luc/CD28/CD8AB/1G4AB clone 18 reporter T cells (human, UniProt P01732 22-235; P10966 22-210); assay: cell-based or functional assay
human CD8 alpha and beta subunit on JRT3.T3/AP1-Luc/CD28/CD8AB/1G4AB clone 18 reporter T cells, sequence (P01732 22-235, chain 1 of 2): as the sequence (P01732 22-235, chain 1 of 2) above
human CD8 alpha and beta subunit on JRT3.T3/AP1-Luc/CD28/CD8AB/1G4AB clone 18 reporter T cells, sequence (P10966 22-210, chain 2 of 2): as the sequence (P10966 22-210, chain 2 of 2) above

[8] = biological target: T2, human CD8 on cells (primary human CD8 …); assay: flow cytometry on primary human CD8 positive T cells
Procedure: Recombinant human IL-2 (50 IU/ml) was supplemented into culture media 72 hours post CD3/CD28 Dynabead incubation. When cells had expanded to the necessary cell number for flow cytometry analysis, the Dynabeads were removed by magnetic separation and cells were immediately used to determine the binding of CD8 antibodies or isotype controls.
as §1, with “buffer.” for “buffer. Human CD8 positive and monkey T cells in stain buffer were plated such that 50 ul of cell suspension, containing approximately 150,000 T cells, were added into wells of the 96-well V-bottom microplate containing the titrated antibodies.”

B1: mAb1 (anti-CD8 monoclonal antibody) (antibody, V domains shown)
VH: QVQLVESGGGVDQPGRSLRLSCAASGFIFSNYGIHWVRQAPGKGLEWVAVIWYDGSNKYFEDSVKGRFNISRDNSKNIVYLQMNSLRAEDTAVYFCARSYDMLTGSGDYYGLDVWGQGTTVTVSS
VL: DIQMTQSPSSLSASVGDRVTITCRASQDITNYLAWFQQKPGKAPKSLIYGASSLQSGVPSKFSGSGSGTDFTLTISSLQPEDFATYYCQQYNNYPLTFGGGTKVEIK
notes: It was captured by anti-mouse Fc in SPR and detected with anti-mouse IgG in flow cytometry; It is tied here because mAb1 is the only exemplary antibody; also called H2aM25428N; mAb1-L1
B1 was tested, and the “Fold Change (MFI compared to isotype control at 25 nM)” value [1] was 1480 fold, the EC50 [2] was 0.37 nM and the Kd [3] was 32.6 nM. For the same binder, the koff [3] was 0.00519 s⁻¹, the kon [3] was 159000 M⁻¹ s⁻¹ and the “t1/2” value [3] was 2.2 min. It also gave an EC50 [4] of 0.329 nM, an EC50 [5] of 0.33 nM and an EC50 [6] of 0.369 nM. For the same binder, the “IC50 [M], reduction of AP1-luciferase activity in CD8 T cell/APC luciferase assay” value [7] was 1.2e-09 M and the “Fold Change (MFI compared to isotype control antibody at 25 nM)” value [8] was 2780 fold.
